# Source: publication doi:10.1101/851261 (2019)
# Positions of bridges follow the written chain, without caps; N, C: chain ends. No end group written: not given here.
# T1: AjKissR2 (Apostichopus japonicus)
# T1 chain: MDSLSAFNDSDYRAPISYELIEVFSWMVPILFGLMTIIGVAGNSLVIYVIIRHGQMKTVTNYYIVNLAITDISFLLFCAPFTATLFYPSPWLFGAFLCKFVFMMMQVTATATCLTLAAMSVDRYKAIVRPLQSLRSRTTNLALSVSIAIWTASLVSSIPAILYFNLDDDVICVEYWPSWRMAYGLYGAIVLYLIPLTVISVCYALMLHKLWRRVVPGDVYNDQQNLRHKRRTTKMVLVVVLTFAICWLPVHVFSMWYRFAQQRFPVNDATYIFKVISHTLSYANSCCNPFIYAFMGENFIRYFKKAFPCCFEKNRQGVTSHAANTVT
# T2: AjKissR1 (Apostichopus japonicus)
# T2 chain: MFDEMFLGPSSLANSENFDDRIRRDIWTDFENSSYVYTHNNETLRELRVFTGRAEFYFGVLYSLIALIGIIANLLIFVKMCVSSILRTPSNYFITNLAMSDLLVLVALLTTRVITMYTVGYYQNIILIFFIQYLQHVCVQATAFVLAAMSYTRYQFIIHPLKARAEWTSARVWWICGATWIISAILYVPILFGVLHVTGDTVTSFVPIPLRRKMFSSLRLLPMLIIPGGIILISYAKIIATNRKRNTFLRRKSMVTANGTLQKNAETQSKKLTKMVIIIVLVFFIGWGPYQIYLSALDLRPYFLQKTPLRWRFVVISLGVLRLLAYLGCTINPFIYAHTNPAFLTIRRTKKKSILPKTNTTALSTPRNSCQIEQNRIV
# Key:
# AjKissR2 = molecular target: T1, AjKissR2; test: FACS; competition with 1.0 uM FITC-AjKiss1a
# AjKissR1 = molecular target: T2, AjKissR1; test: FACS; competition with 1.0 uM FITC-AjKiss1a
Binder,IC50 (AjKissR2) [nM],IC50 (AjKissR1) [nM]
SAVKNKNKSRARPPLLPF-NH2 [AjKiss1b],1250,–
AGSLDCLEASCEDVERRGRQPNRNAHYRTLPF-NH2 (disulfide 6-11 (inferred)) [AjKiss1a],–,568
